To fix the notation:
B1: GpH7-A5/GpH7-B3 variant S337_01G/GpL16-k0 (antibody, human IgG1, kappa)
heavy 1: not shown
heavy 2: not shown
light: DIVMTQSPLSLPVTPGEPASISCQASESLVHSNRNTYLHWYLQKPGQSPQLLIYKVSNRFSGVPDRFSGSGSGTDFTLKISRVEAEDVGVYYCSQNTHVPPTFGQGTKVEIERTVAAPSVFIFPPSDEQLKSGTASVVCLLNNFYPREAKVQWKVDNALQSGNSQESVTEQDSKDSTYSLSSTLTLSKADYEKHKVYACEVTHQGLSSPVTKSFNRGEC
notes: mutation in one H chain only; also called He Ab S337_01G; S337G
B2: GpH7-A5/GpH7-B3 variant T335_11K/GpL16-k0 (antibody, human IgG1, kappa)
heavy 1: not shown
heavy 2: not shown
light: DIVMTQSPLSLPVTPGEPASISCQASESLVHSNRNTYLHWYLQKPGQSPQLLIYKVSNRFSGVPDRFSGSGSGTDFTLKISRVEAEDVGVYYCSQNTHVPPTFGQGTKVEIERTVAAPSVFIFPPSDEQLKSGTASVVCLLNNFYPREAKVQWKVDNALQSGNSQESVTEQDSKDSTYSLSSTLTLSKADYEKHKVYACEVTHQGLSSPVTKSFNRGEC
notes: mutation in one H chain only; also called He Ab T335_11K; T335K
B3: GpH7-A5/GpH7-B3 variant T335_06M/GpL16-k0 (antibody, human IgG1, kappa)
heavy 1: not shown
heavy 2: not shown
light: DIVMTQSPLSLPVTPGEPASISCQASESLVHSNRNTYLHWYLQKPGQSPQLLIYKVSNRFSGVPDRFSGSGSGTDFTLKISRVEAEDVGVYYCSQNTHVPPTFGQGTKVEIERTVAAPSVFIFPPSDEQLKSGTASVVCLLNNFYPREAKVQWKVDNALQSGNSQESVTEQDSKDSTYSLSSTLTLSKADYEKHKVYACEVTHQGLSSPVTKSFNRGEC
notes: mutation in one H chain only; also called He Ab T335_06M; T335M
B4: GpH7-A5/GpH7-B3 variant S337_08L/GpL16-k0 (antibody, human IgG1, kappa)
heavy 1: not shown
heavy 2: not shown
light: DIVMTQSPLSLPVTPGEPASISCQASESLVHSNRNTYLHWYLQKPGQSPQLLIYKVSNRFSGVPDRFSGSGSGTDFTLKISRVEAEDVGVYYCSQNTHVPPTFGQGTKVEIERTVAAPSVFIFPPSDEQLKSGTASVVCLLNNFYPREAKVQWKVDNALQSGNSQESVTEQDSKDSTYSLSSTLTLSKADYEKHKVYACEVTHQGLSSPVTKSFNRGEC
notes: mutation in one H chain only; also called He Ab S337_08L; S337L
B5: GpH7-A5/GpH7-B3 variant T335_07I/GpL16-k0 (antibody, human IgG1, kappa)
heavy 1: not shown
heavy 2: not shown
light: DIVMTQSPLSLPVTPGEPASISCQASESLVHSNRNTYLHWYLQKPGQSPQLLIYKVSNRFSGVPDRFSGSGSGTDFTLKISRVEAEDVGVYYCSQNTHVPPTFGQGTKVEIERTVAAPSVFIFPPSDEQLKSGTASVVCLLNNFYPREAKVQWKVDNALQSGNSQESVTEQDSKDSTYSLSSTLTLSKADYEKHKVYACEVTHQGLSSPVTKSFNRGEC
notes: mutation in one H chain only; also called He Ab T335_07I; T335I
B6: GpH7-A5/GpH7-B3 variant S337_19Q/GpL16-k0 (antibody, human IgG1, kappa)
heavy 1: not shown
heavy 2: not shown
light: DIVMTQSPLSLPVTPGEPASISCQASESLVHSNRNTYLHWYLQKPGQSPQLLIYKVSNRFSGVPDRFSGSGSGTDFTLKISRVEAEDVGVYYCSQNTHVPPTFGQGTKVEIERTVAAPSVFIFPPSDEQLKSGTASVVCLLNNFYPREAKVQWKVDNALQSGNSQESVTEQDSKDSTYSLSSTLTLSKADYEKHKVYACEVTHQGLSSPVTKSFNRGEC
notes: mutation in one H chain only; also called He Ab S337_19Q; S337Q
B7: GpH7-A5/GpH7-B3 variant S337_09D/GpL16-k0 (antibody, human IgG1, kappa)
heavy 1: not shown
heavy 2: not shown
light: DIVMTQSPLSLPVTPGEPASISCQASESLVHSNRNTYLHWYLQKPGQSPQLLIYKVSNRFSGVPDRFSGSGSGTDFTLKISRVEAEDVGVYYCSQNTHVPPTFGQGTKVEIERTVAAPSVFIFPPSDEQLKSGTASVVCLLNNFYPREAKVQWKVDNALQSGNSQESVTEQDSKDSTYSLSSTLTLSKADYEKHKVYACEVTHQGLSSPVTKSFNRGEC
notes: mutation in one H chain only; also called He Ab S337_09D; S337D
B8: GpH7-A5/GpH7-B3 variant S337_03V/GpL16-k0 (antibody, human IgG1, kappa)
heavy 1: not shown
heavy 2: not shown
light: DIVMTQSPLSLPVTPGEPASISCQASESLVHSNRNTYLHWYLQKPGQSPQLLIYKVSNRFSGVPDRFSGSGSGTDFTLKISRVEAEDVGVYYCSQNTHVPPTFGQGTKVEIERTVAAPSVFIFPPSDEQLKSGTASVVCLLNNFYPREAKVQWKVDNALQSGNSQESVTEQDSKDSTYSLSSTLTLSKADYEKHKVYACEVTHQGLSSPVTKSFNRGEC
notes: mutation in one H chain only; also called He Ab S337_03V; S337V
B9: GpH7-A5/GpH7-B3 variant S337_07I/GpL16-k0 (antibody, human IgG1, kappa)
heavy 1: not shown
heavy 2: not shown
light: DIVMTQSPLSLPVTPGEPASISCQASESLVHSNRNTYLHWYLQKPGQSPQLLIYKVSNRFSGVPDRFSGSGSGTDFTLKISRVEAEDVGVYYCSQNTHVPPTFGQGTKVEIERTVAAPSVFIFPPSDEQLKSGTASVVCLLNNFYPREAKVQWKVDNALQSGNSQESVTEQDSKDSTYSLSSTLTLSKADYEKHKVYACEVTHQGLSSPVTKSFNRGEC
notes: mutation in one H chain only; also called He Ab S337_07I; S337I
B10: GpH7-A5/GpH7-B3 variant S337_06M/GpL16-k0 (antibody, human IgG1, kappa)
heavy 1: not shown
heavy 2: not shown
light: DIVMTQSPLSLPVTPGEPASISCQASESLVHSNRNTYLHWYLQKPGQSPQLLIYKVSNRFSGVPDRFSGSGSGTDFTLKISRVEAEDVGVYYCSQNTHVPPTFGQGTKVEIERTVAAPSVFIFPPSDEQLKSGTASVVCLLNNFYPREAKVQWKVDNALQSGNSQESVTEQDSKDSTYSLSSTLTLSKADYEKHKVYACEVTHQGLSSPVTKSFNRGEC
notes: mutation in one H chain only; also called He Ab S337_06M; S337M
B11: GpH7-A5/GpH7-B3 variant S337_20W/GpL16-k0 (antibody, human IgG1, kappa)
heavy 1: not shown
heavy 2: not shown
light: DIVMTQSPLSLPVTPGEPASISCQASESLVHSNRNTYLHWYLQKPGQSPQLLIYKVSNRFSGVPDRFSGSGSGTDFTLKISRVEAEDVGVYYCSQNTHVPPTFGQGTKVEIERTVAAPSVFIFPPSDEQLKSGTASVVCLLNNFYPREAKVQWKVDNALQSGNSQESVTEQDSKDSTYSLSSTLTLSKADYEKHKVYACEVTHQGLSSPVTKSFNRGEC
notes: mutation in one H chain only; also called He Ab S337_20W; S337W

T1 sequence (P12314 16-292): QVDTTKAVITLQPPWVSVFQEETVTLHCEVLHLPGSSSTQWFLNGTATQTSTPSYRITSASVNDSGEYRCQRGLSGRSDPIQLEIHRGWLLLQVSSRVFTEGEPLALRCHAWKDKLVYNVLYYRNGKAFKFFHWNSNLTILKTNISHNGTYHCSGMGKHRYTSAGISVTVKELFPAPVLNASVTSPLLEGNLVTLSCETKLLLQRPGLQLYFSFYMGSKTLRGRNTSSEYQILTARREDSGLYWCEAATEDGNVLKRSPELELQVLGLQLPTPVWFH

The experiment concerns the target T1, FcγRIa extracellular domain with C-terminal His tag (human, UniProt P12314 16-292).
T1 construct: extracellular domain; also called FcgRI; CD64; not shown: His tag at the C terminus
Put plainly: SPR Biacore, relative FcγRIa binding vs GpH7-A5/GpH7-B3/GpL16-k0.
Consider B1, for which the He/Con_1a was 107 % of HeCon Ab (=100).
Take B2: the He/Con_1a is 111 % of HeCon Ab (=100).
To B3 belongs 107 % of HeCon Ab (=100); to B4, 105 % of HeCon Ab (=100); to B5, 109 % of HeCon Ab (=100).
To B6 belongs 105 % of HeCon Ab (=100); to B7, 106 % of HeCon Ab (=100); to B8, 107 % of HeCon Ab (=100).
In the case of B9, the He/Con_1a was 105 % of HeCon Ab (=100).
To B10 belongs 107 % of HeCon Ab (=100).
On to B11, for which the He/Con_1a was 105 % of HeCon Ab (=100).

The values above are taken from patent US20180155451A1 (published 2018).
